Results reported in the supplement of paper PMC9732359.
± gives the uncertainty stated by the source.

Assay: protein stability index of a GFP-peptide fusion (yeast GPS) (PSI 1-4); higher = more stable; sorted into four equal gates, so the index is relative within each strain
How it was run: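 Plasmids in a pooled yeast library fused tiled 17-residue yeast protein peptides downstream of GFP and also expressed Cherry. Mid-log cultures grown without leucine were sorted into four equal gates by GFP/Cherry fluorescence ratio. Each gate's plasmids were PCR-amplified and Illumina-sequenced, and reads were matched to strains by barcodes. The protein stability index is derived by multiplying each gate's read frequency by its gate number and summing the results.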

| Sequence | protein stability index (doa10∆) | protein stability index (pdr5∆) | protein stability index (san1∆) | protein stability index (ubr1∆) |
| --- | --- | --- | --- | --- |
| MYQEWEDETVKVAQLRQ [NSL1] | 3.63 ± 0.085 | 3.47 ± 0.076 | 3.372 ± 0.032 | 3.5 ± 0.07 |
| GSLALLKLSMADYNGAL [POP4] | 2.33 ± 0.046 | 2.67 ± 0.058 | 2.48 ± 0.054 | 2.38 ± 0.037 |
| GYSGYGNGITNTTTRVI [SNF5] | 3.64 ± 0.2 | 3.72 ± 0.24 | 2.76 ± 0.18 |  |
| KTERVEDQKVVDKALLA [RPL6B] | 1.52 ± 0.17 | 1.43 ± 0.089 | 1.38 ± 0.15 | 1.19 ± 0.13 |
| PPLTSQYSTRHDAPRGL [SWI3] | 3.13 ± 0.047 | 3.19 ± 0.06 | 3.14 ± 0.05 | 3.21 ± 0.045 |
| YDLVILKSGLPLSGLLF [YMR129W/POM152] | 3.61 ± 0.17 | 2.53 ± 0.13 | 3.51 ± 0.049 | 2.11 ± 0.18 |
| EYSRDCFCEDHCDKCSV [RPB3] | 3.13 ± 0.19 | 3.51 ± 0.15 | 3.24 ± 0.18 | 2.98 ± 0.2 |
| KPAFSFGAKPDENKASA [YJL041W/NSP1] | 3.16 ± 0.093 | 3.3 ± 0.074 | 2.76 ± 0.06 | 3.24 ± 0.063 |
| AKAKAVTSKVRNAEFKV [YMR153W/NUP53] | 1.38 ± 0.15 | 1.67 ± 0.13 |  | 1.3 ± 0.13 |
| KERNQKFQLQNQLEDFI [YIL149C/MLP2] | 3.05 ± 0.075 | 3.25 ± 0.066 | 2.78 ± 0.05 | 3 ± 0.053 |
| DNNITEMLEENFPEASK [YCG1] | 2.48 ± 0.097 | 2.22 ± 0.11 | 2.59 ± 0.09 | 2.74 ± 0.052 |
| QLTVCGAIIGWTRGTGL [FAS2] | 1.26 ± 0.079 | 1.18 ± 0.067 | 1.09 ± 0.23 | 1.3 ± 0.085 |
| GLPLGIAEEKMWSQFQT [YGR119C/NUP57] | 2.84 ± 0.14 |  |  | 3.05 ± 0.19 |
| TDNMSGRGLWNPSYPGM [YJL039C/NUP192] | 3.14 ± 0.26 | 3.11 ± 0.18 |  | 2.84 ± 0.26 |
| NSKVDMKYDIFAKFIHH [IRR1] | 2.39 ± 0.083 | 2.15 ± 0.077 | 2.31 ± 0.071 | 2.47 ± 0.054 |
| EKGPQVCAKLFGNIQKV [RPO21] | 2.63 ± 0.08 | 2.29 ± 0.057 | 2.29 ± 0.079 | 2.09 ± 0.06 |
| MLLCVSYFLQERYFDCC [PCI8] | 1.19 ± 0.091 | 1.26 ± 0.058 | 1.55 ± 0.1 | 1.3 ± 0.092 |
| EMERIVKNLTKYLSDIM [SRP68] | 2.76 ± 0.25 | 2.53 ± 0.099 |  | 2.06 ± 0.074 |
| DFAQKEINGDDDEDEDD [PRE10] | 3.09 ± 0.11 | 3.19 ± 0.071 | 3.22 ± 0.082 | 3.28 ± 0.063 |
| NQVTDSSQLNKLTDEQS [SIR3] | 2.71 ± 0.063 | 2.74 ± 0.069 | 2.82 ± 0.07 | 2.68 ± 0.072 |
| AQQQQLSNYPQQIQEQV [YGR119C/NUP57] | 2.82 ± 0.059 | 3.09 ± 0.058 | 2.71 ± 0.046 | 3.02 ± 0.044 |
| NPLKNKQVLLRLNPYAK [RPL4A] | 1.34 ± 0.17 | 1.21 ± 0.11 | 1.15 ± 0.15 | 1.13 ± 0.18 |
| VLLVLPFTDRSVVRGNT [COB] | 3.11 ± 0.14 | 3.31 ± 0.15 | 3.52 ± 0.07 | 3.34 ± 0.15 |
| SCLTFFQALDSEETQFK [ITC1] | 2.73 ± 0.1 | 3.49 ± 0.13 | 2.7 ± 0.11 | 3.17 ± 0.15 |
| CDQTKSVPLMINAKNIA [RRP43] | 1.74 ± 0.061 | 2.21 ± 0.078 | 1.53 ± 0.11 | 1.61 ± 0.068 |
| LKAAFVAIGNTYGFLTP [RPS2] | 2.13 ± 0.072 | 2.27 ± 0.048 | 2.07 ± 0.095 | 2.55 ± 0.042 |
